Assay results reported in patent publication US20190359687A1 (Bayer, published 2019).

T1: human glycophorin A on human red blood cells (human, UniProt P02724 20-150)
T1 construct: whole, on cells; also called human GPA; huGPA
T1 sequence (looked up): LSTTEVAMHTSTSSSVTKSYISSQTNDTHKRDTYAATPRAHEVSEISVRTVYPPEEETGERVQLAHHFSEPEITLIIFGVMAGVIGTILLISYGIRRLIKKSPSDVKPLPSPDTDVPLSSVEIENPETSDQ

B1: TPP-9424 FVIII-scFv fusion protein (other)
chain: DIQLTQSPSFLSASVGDRVTITCRASSSVRYIYWFQQKPGKAPKLLIYATSFRQSGVPSRFSGSGSGTEYTLTISSLQPEDFATYYCHQRNSFPYTFGQGTKLEIKGGGGSGGGGSGGGGSGGGGSEVQLVQSGAEVKKPGASVKVSCKASGYTFTTYAIHWVRQAPGQGLEWMGYINPSSGYTRYNPKFKGRVTMTRDKSTSTAYMELRSLRSDDTAVYYCWTGTRDYWGQGTTVTVSSGGGSGGGGSGLVPRGSGGGSGGGGSGATRRYYLGAVELSWDYMQSDLGELPVDARFPPRVPKSFPFNTSVVYKKTLFVEFTDHLFNIAKPRPPWMGLLGPTIQAEVYDTVVITLKNMASHPVSLHAVGVSYWKASEGAEYDDQTSQREKEDDKVFPGGSHTYVWQVLKENGPMASDPLCLTYSYLSHVDLVKDLNSGLIGALLVCREGSLAKEKTQTLHKFILLFAVFDEGKSWHSETKNSLMQDRDAASARAWPKMHTVNGYVNRSLPGLIGCHRKSVYWHVIGMGTTPEVHSIFLEGHTFLVRNHRQASLEISPITFLTAQTLLMDLGQFLLFCHISSHQHDGMEAYVKVDSCPEEPQLRMKNNEEAEDYDDDLTDSEMDVVRFDDDNSPSFIQIRSVAKKHPKTWVHYIAAEEEDWDYAPLVLAPDDRSYKSQYLNNGPQRIGRKYKKVRFMAYTDETFKTREAIQHESGILGPLLYGEVGDTLLIIFKNQASRPYNIYPHGITDVRPLYSRRLPKGVKHLKDFPILPGEIFKYKWTVTVEDGPTKSDPRCLTRYYSSFVNMERDLASGLIGPLLICYKESVDQRGNQIMSDKRNVILFSVFDENRSWYLTENIQRFLPNPAGVQLEDPEFQASNIMHSINGYVFDSLQLSVCLHEVAYWYILSIGAQTDFLSVFFSGYTFKHKMVYEDTLTLFPFSGETVFMSMENPGLWILGCHNSDFRNRGMTALLKVSSCDKNTGDYYEDSYEDISAYLLSKNNAIEPRSFSQNDENQSPRSFQKKTRHYFIAAVERLWDYGMSSSPHVLRNRAQSGSVPQFKKVVFQEFTDGSFTQPLYRGELNEHLGLLGPYIRAEVEDNIMVTFRNQASRPYSFYSSLISYEEDQRQGAEPRKNFVKPNETKTYFWKVQHHMAPTKDEFDCKAWAYFSDVDLEKDVHSGLIGPLLVCHTNTLNPAHGRQVTVQEFALFFTIFDETKSWYFTENMERNCRAPCNIQMEDPTFKENYRFHAINGYIMDTLPGLVMAQDQRIRWYLLSMGSNENIHSIHFSGHVFTVRKKEEYKMALYNLYPGVFETVEMLPSKAGIWRVECLIGEHLHAGMSTLFLVYSNKCQTPLGMASGHIRDFQITASGQYGQWAPKLARLHYSGSINAWSTKEPFSWIKVDLLAPMIIHGIKTQGARQKFSSLYISQFIIMYSLDGKKWQTYRGNSTGTLMVFFGNVDSSGIKHNIFNPPIIARYIRLHPTHYSIRSTLRMELMGCDLNSCSMPLGMESKAISDAQITASSYFTNMFATWSPSKARLHLQGRSNAWRPQVNNPKEWLQVDFQKTMKVTGVTTQGVKSLLTSMYVKEFLISSSQDGHQWTLFFQNGKVKVFQGNQDSFTPVVNSLDPPLLTRYLRIHPQSWVHQIALRMEVLGCEAQDLY
notes: also called PPB 7888
B2: B-domain deleted FVIII (other, human, UniProt P00451 20-2351, looked up)
chain: ATRRYYLGAVELSWDYMQSDLGELPVDARFPPRVPKSFPFNTSVVYKKTLFVEFTDHLFNIAKPRPPWMGLLGPTIQAEVYDTVVITLKNMASHPVSLHAVGVSYWKASEGAEYDDQTSQREKEDDKVFPGGSHTYVWQVLKENGPMASDPLCLTYSYLSHVDLVKDLNSGLIGALLVCREGSLAKEKTQTLHKFILLFAVFDEGKSWHSETKNSLMQDRDAASARAWPKMHTVNGYVNRSLPGLIGCHRKSVYWHVIGMGTTPEVHSIFLEGHTFLVRNHRQASLEISPITFLTAQTLLMDLGQFLLFCHISSHQHDGMEAYVKVDSCPEEPQLRMKNNEEAEDYDDDLTDSEMDVVRFDDDNSPSFIQIRSVAKKHPKTWVHYIAAEEEDWDYAPLVLAPDDRSYKSQYLNNGPQRIGRKYKKVRFMAYTDETFKTREAIQHESGILGPLLYGEVGDTLLIIFKNQASRPYNIYPHGITDVRPLYSRRLPKGVKHLKDFPILPGEIFKYKWTVTVEDGPTKSDPRCLTRYYSSFVNMERDLASGLIGPLLICYKESVDQRGNQIMSDKRNVILFSVFDENRSWYLTENIQRFLPNPAGVQLEDPEFQASNIMHSINGYVFDSLQLSVCLHEVAYWYILSIGAQTDFLSVFFSGYTFKHKMVYEDTLTLFPFSGETVFMSMENPGLWILGCHNSDFRNRGMTALLKVSSCDKNTGDYYEDSYEDISAYLLSKNNAIEPRSFSQNPPVLKRHQREITRTTLQSDQEEIDYDDTISVEMKKEDFDIYDEDENQSPRSFQKKTRHYFIAAVERLWDYGMSSSPHVLRNRAQSGSVPQFKKVVFQEFTDGSFTQPLYRGELNEHLGLLGPYIRAEVEDNIMVTFRNQASRPYSFYSSLISYEEDQRQGAEPRKNFVKPNETKTYFWKVQHHMAPTKDEFDCKAWAYFSDVDLEKDVHSGLIGPLLVCHTNTLNPAHGRQVTVQEFALFFTIFDETKSWYFTENMERNCRAPCNIQMEDPTFKENYRFHAINGYIMDTLPGLVMAQDQRIRWYLLSMGSNENIHSIHFSGHVFTVRKKEEYKMALYNLYPGVFETVEMLPSKAGIWRVECLIGEHLHAGMSTLFLVYSNKCQTPLGMASGHIRDFQITASGQYGQWAPKLARLHYSGSINAWSTKEPFSWIKVDLLAPMIIHGIKTQGARQKFSSLYISQFIIMYSLDGKKWQTYRGNSTGTLMVFFGNVDSSGIKHNIFNPPIIARYIRLHPTHYSIRSTLRMELMGCDLNSCSMPLGMESKAISDAQITASSYFTNMFATWSPSKARLHLQGRSNAWRPQVNNPKEWLQVDFQKTMKVTGVTTQGVKSLLTSMYVKEFLISSSQDGHQWTLFFQNGKVKVFQGNQDSFTPVVNSLDPPLLTRYLRIHPQSWVHQIALRMEVLGCEAQDLY
notes: Untargeted control without scFv; also called BDD-FVIII; BDD

Key:
[1] = target: T2, Cynomolgus monkey glycophorin A on Cynomolgus monkey red blood cells (Cynomolgus monkey); test: partition to Cyno RBC, human HemA plasma, 1 min;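 also: FVIII fusion spiked at 1 IU/mL into RBC suspension at whole-blood density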
T2 construct: whole, on cells; also called Cyno GPA; Cyno RBC

[2] = target: T2, Cynomolgus monkey glycophorin A on …; test: partition to Cyno RBC, human HemA plasma, 5 min;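 also: FVIII fusion spiked at 1 IU/mL into RBC suspension at whole-blood density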
[3] = target: T1, human glycophorin A on human red blood …; test: partition to human RBC, human HemA plasma, 1 min
Description: (§1) The supernatant containing plasma, platelets and white blood cells was discarded and the red blood cell pellet was resuspended in 10 pellet volumes of PBS (50 mM Phosphate buffer, pH7.4, 150 mM NaCl). The red blood cells were then pelleted by slow speed centrifugation and the red blood cells re-suspended in 10 volumes of PBS. This washing step was repeated 4 more times and the red blood cells finally resuspended in a volume of plasma from Hemophilia patients with less than 1% of normal levels of FVIII (GeorgeKing Bio-Medical, Overland Park, Kans.) to generate a total volume equal to the initial blood volume such that the RBC density was equal to that of normal whole blood. BDD and RBC targeted FVIII molecules were then spiked into RBC suspension in HemA plasma at 1 IU/mL, and incubated at room temperature for 2-3 hours with gentle rotation. […] An additional control was performed in which BDD or RBC targeted FVIII molecules were added at 11U/ml into the same human hemophilia A plasma and incubated for 5 minutes and 180 mins. These samples were used to determine the input FVIII activity in the presence of plasma which was used to calculate the percentage of the molecule that was bound to RBC. All plasma samples were then assayed together for FVIII activity using the Coatest SP assay (DiaPharma, Columbus, Ohio). The assay was performed following the manufacturer's instructions in a 96-well plate format. […] The plate was incubated at 37° C. for 10 minutes with shaking between each reagent addition. […] The amount of FVIII activity in the plasma reflects the amount of unbound FVIII. The FVIII activity of the same molecule spiked in to Hemophilia A plasma alone (no RBC) and incubated for 5 minutes was normalized to 100%.

[4] = target: T1, human glycophorin A on human red blood …; test: partition to human RBC, human HemA plasma, 5 min
Description: as §1

[5] = target: T2, Cynomolgus monkey glycophorin A on …; test: partition to Cyno RBC, human HemA plasma, 15 min;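 also: FVIII fusion spiked at 1 IU/mL into RBC suspension at whole-blood density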
[6] = target: T2, Cynomolgus monkey glycophorin A on …; test: partition to Cyno RBC, human HemA plasma, 30 min;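 also: FVIII fusion spiked at 1 IU/mL into RBC suspension at whole-blood density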
Description: To evaluate partition to cynomolgus monkey or human red blood cells, whole blood was draw from Cynomolgus monkey or normal human volunteers in to anticoagulant with 4% sodium citrate (Sigma, St Louis, Mo.). The red blood cells were purified by layering the whole blood on to ficoll followed by low speed centrifugation. The supernatant containing plasma, platelets and white blood cells was discarded and the red blood cell pellet was resuspended in 10 pellet volumes of PBS (50 mM Phosphate buffer, pH7.4, 150 mM NaCl). The red blood cells were then pelleted by slow speed centrifugation and the red blood cells re-suspended in 10 volumes of PBS. This washing step was repeated 4 more times and the red blood cells finally resuspended in a volume of plasma from Hemophilia patients with less than 1% of normal levels of FVIII (GeorgeKing Bio-Medical, Overland Park, Kans.) to generate a total volume equal to the initial blood volume such that the RBC density was equal to that of normal whole blood. BDD and RBC targeted FVIII molecules were then spiked into RBC suspension in HemA plasma at 1 IU/mL, and incubated at room temperature for 2-3 hours with gentle rotation. […] An additional control was performed in which BDD or RBC targeted FVIII molecules were added at 11U/ml into the same human hemophilia A plasma and incubated for 5 minutes and 180 mins. These samples were used to determine the input FVIII activity in the presence of plasma which was used to calculate the percentage of the molecule that was bound to RBC. All plasma samples were then assayed together for FVIII activity using the Coatest SP assay (DiaPharma, Columbus, Ohio). The assay was performed following the manufacturer's instructions in a 96-well plate format. […] The plate was incubated at 37° C. for 10 minutes with shaking between each reagent addition.

[7] = target: T2, Cynomolgus monkey glycophorin A on …; test: partition to Cyno RBC, human HemA plasma, 60 min;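 also: FVIII fusion spiked at 1 IU/mL into RBC suspension at whole-blood density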
[8] = target: T1, human glycophorin A on human red blood …; test: partition to human RBC, human HemA plasma, 15 min
Description: as §1

[9] = target: T1, human glycophorin A on human red blood …; test: partition to human RBC, human HemA plasma, 30 min
Description: as §1

[10] = target: T1, human glycophorin A on human red blood …; test: partition to human RBC, human HemA plasma, 60 min
Description: as §1

[11] = target: T2, Cynomolgus monkey glycophorin A on …; test: partition to Cyno RBC, human HemA plasma, 120 min;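 also: FVIII fusion spiked at 1 IU/mL into RBC suspension at whole-blood density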
[12] = target: T1, human glycophorin A on human red blood …; test: partition to human RBC, human HemA plasma, 120 min
[13] = target: T1, human glycophorin A on human red blood …; test: partition to human RBC, human HemA plasma, 120 min; remark: listed apart in the source
Description: as §1

Binder	% bound to Cyno RBC [1]	% bound to Cyno RBC [2]	percentage bound to human RBC [3]	percentage bound to human RBC [4]	% bound to Cyno RBC [5]	% bound to Cyno RBC [6]	% bound to Cyno RBC [7]	percentage bound to human RBC [8]	percentage bound to human RBC [9]	percentage bound to human RBC [10]	% bound to Cyno RBC [11]	percentage bound to human RBC [12]	percentage bound to human RBC [13]
B1	62.9%	83%	76.5%	90.5%	87.2%	87.8%	89%	94.4%	94.5%	95.2%	89.1%	95.6%	95.6%
B2	–	–	0%	2%	–	–	–	4%	0%	2%	–	–	0%
